Experimental data published in patent US20180155451A1 (published 2018).

T1: FcγRIIb extracellular domain with C-terminal His tag (human, UniProt P31994 43-217)
T1 construct: extracellular domain; Soluble receptor expressed in FreeStyle293 cells, used as analyte in Biacore; also called FcgRIIb; 2b; not shown: His tag attached to the C terminus
T1 sequence (looked up): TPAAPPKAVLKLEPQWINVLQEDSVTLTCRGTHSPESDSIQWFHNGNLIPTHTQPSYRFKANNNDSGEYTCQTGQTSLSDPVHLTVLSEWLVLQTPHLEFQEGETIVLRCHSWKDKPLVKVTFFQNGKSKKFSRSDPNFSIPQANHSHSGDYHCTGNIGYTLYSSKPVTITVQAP

T2: FcγRIIb extracellular domain with C-terminal His tag (human, UniProt P31994 43-217)
T2 construct: extracellular domain; Expressed in FreeStyle293 cells and used as the analyte in Biacore; also called FcgRIIb; 2b; not shown: His tag attached to the C terminus
T2 sequence (looked up): T1 sequence (looked up)

B1: GpH7-A5/GpH7-B3 variant K334_13S/GpL16-k0 (heterodimerized antibody, He Ab) (antibody, human IgG1, kappa)
heavy 1: not shown
heavy 2: not shown
light: DIVMTQSPLSLPVTPGEPASISCQASESLVHSNRNTYLHWYLQKPGQSPQLLIYKVSNRFSGVPDRFSGSGSGTDFTLKISRVEAEDVGVYYCSQNTHVPPTFGQGTKVEIERTVAAPSVFIFPPSDEQLKSGTASVVCLLNNFYPREAKVQWKVDNALQSGNSQESVTEQDSKDSTYSLSSTLTLSKADYEKHKVYACEVTHQGLSSPVTKSFNRGEC
notes: Anti-glypican-3 IgG1 heterodimerized antibody; the alteration stands only in the GpH7-B3 chain; Positions in EU numbering; also called K334S
B2: GpH7-A5/GpH7-B3 variant S267_10E/GpL16-k0 (He Ab) (antibody, human IgG1, kappa)
heavy 1: not shown
heavy 2: not shown
light: B1 light
notes: Anti-glypican-3 heterodimerized IgG1 antibody; the mutation stands in only one H chain (the GpH7-B3 chain); also called S267E in one H chain
B3: GpH7-A5/GpH7-B3 variant S267_16H/GpL16-k0 (He Ab) (antibody, human IgG1, kappa)
heavy 1: not shown
heavy 2: not shown
light: B1 light
notes: Anti-glypican-3 heterodimerized IgG1 antibody; the mutation stands in only one H chain (the GpH7-B3 chain); also called S267H in one H chain
B4: GpH7-A5/GpH7-B3 variant H268_02A/GpL16-k0 (He Ab) (antibody, human IgG1, kappa)
heavy 1: not shown
heavy 2: not shown
light: B1 light
notes: Anti-glypican-3 heterodimerized IgG1 antibody; the mutation stands in only one H chain (the GpH7-B3 chain); also called H268A in one H chain
B5: GpH7-A5/GpH7-B3 variant H268_05P/GpL16-k0 (He Ab) (antibody, human IgG1, kappa)
heavy 1: not shown
heavy 2: not shown
light: B1 light
notes: Anti-glypican-3 heterodimerized IgG1 antibody; the mutation stands in only one H chain (the GpH7-B3 chain); also called H268P in one H chain
B6: GpH7-A5/GpH7-B3 variant S267_20W/GpL16-k0 (He Ab) (antibody, human IgG1, kappa)
heavy 1: not shown
heavy 2: not shown
light: B1 light
notes: Anti-glypican-3 heterodimerized IgG1 antibody; the mutation stands in only one H chain (the GpH7-B3 chain); also called S267W in one H chain
B7: GpH7-A5/GpH7-B3 variant S267_19Q/GpL16-k0 (He Ab) (antibody, human IgG1, kappa)
heavy 1: not shown
heavy 2: not shown
light: B1 light
notes: Anti-glypican-3 heterodimerized IgG1 antibody; the mutation stands in only one H chain (the GpH7-B3 chain); also called S267Q in one H chain
B8: GpH7-A5/GpH7-B3 variant S267_14T/GpL16-k0 (He Ab) (antibody, human IgG1, kappa)
heavy 1: not shown
heavy 2: not shown
light: B1 light
notes: Anti-glypican-3 heterodimerized IgG1 antibody; the mutation stands in only one H chain (the GpH7-B3 chain); also called S267T in one H chain
B9: GpH7-A5/GpH7-B3 variant P271_01G/GpL16-k0 (He Ab) (antibody, human IgG1, kappa)
heavy 1: not shown
heavy 2: not shown
light: B1 light
notes: Anti-glypican-3 heterodimerized IgG1 antibody; the mutation stands in only one H chain (the GpH7-B3 chain); also called P271G in one H chain
B10: GpH7-A5/GpH7-B3 variant H268_18N/GpL16-k0 (He Ab) (antibody, human IgG1, kappa)
heavy 1: not shown
heavy 2: not shown
light: B1 light
notes: Anti-glypican-3 heterodimerized IgG1 antibody; the mutation stands in only one H chain (the GpH7-B3 chain); also called H268N in one H chain
B11: GpH7-A5/GpH7-B3 variant H268_20W/GpL16-k0 (He Ab) (antibody, human IgG1, kappa)
heavy 1: not shown
heavy 2: not shown
light: B1 light
notes: Anti-glypican-3 heterodimerized IgG1 antibody; the mutation stands in only one H chain (the GpH7-B3 chain); also called H268W in one H chain
B12: GpH7-A5/GpH7-B3 variant S267_15Y/GpL16-k0 (He Ab) (antibody, human IgG1, kappa)
heavy 1: not shown
heavy 2: not shown
light: B1 light
notes: Anti-glypican-3 heterodimerized IgG1 antibody; the mutation stands in only one H chain (the GpH7-B3 chain); also called S267Y in one H chain
B13: GpH7-A5/GpH7-B3 variant H268_01G/GpL16-k0 (He Ab) (antibody, human IgG1, kappa)
heavy 1: not shown
heavy 2: not shown
light: B1 light
notes: Anti-glypican-3 heterodimerized IgG1 antibody; the mutation stands in only one H chain (the GpH7-B3 chain); also called H268G in one H chain
B14: GpH7-A5/GpH7-B3 variant P271_08L/GpL16-k0 (He Ab) (antibody, human IgG1, kappa)
heavy 1: not shown
heavy 2: not shown
light: B1 light
notes: Anti-glypican-3 heterodimerized IgG1 antibody; the mutation stands in only one H chain (the GpH7-B3 chain); also called P271L in one H chain
B15: GpH7-A5/GpH7-B3 variant H268_13S/GpL16-k0 (He Ab) (antibody, human IgG1, kappa)
heavy 1: not shown
heavy 2: not shown
light: B1 light
notes: Anti-glypican-3 heterodimerized IgG1 antibody; the mutation stands in only one H chain (the GpH7-B3 chain); also called H268S in one H chain

Each binder was assayed against T1, FcγRIIb extracellular domain with … (assay: SPR (Biacore), antibody captured via antigen peptide, FcγR as analyte; binding amount relative to control heterodimerized antibody).
Procedure: (§1) The heterodimerized antibodies He Abs in which one of the H chains was introduced with an alteration were assayed for their binding activities to each activating FcγR and inhibitory FcγR according to the method described in Example 4. […] The activating FcγRs in FIGS. 26, 27, 28, and 29 are FcγRIa, FcγRIIa (R), FcγRIIa (H), and FcγRIIIa, respectively.
(§2) Analysis of interaction between objective antibody and the FcγR was carried out using Biacore T100 (GE Healthcare). HBS-EP+ (GE Healthcare) was used as the running buffer, and the measurement temperature was set to 25° C. Chips produced by immobilizing the antigen peptide by the amine coupling method to a Series S Sencor Chip CM5 (GE Healthcare), or alternatively, chips produced by allowing preliminarily biotinylated antigen peptides to interact with and immobilize onto a Series S Sensor Chip SA (certified) (GE Healthcare) were used. Antibodies of interest were captured onto an antigen peptide-immobilized chip, and allowed to interact to each FcγR diluted with running buffer. To regenerate and repeatedly use the chip, the antibodies captured on the chip were washed off by reacting 10 mM glycine-HCl, pH 1.5.

With B1 the “He/Con_2b (IIb binding)” value was 111 relative binding, GpH7-A5/GpH7-B3/GpL16-k0 = 100.

These binders were tested against T3, FcγRIIIa extracellular domain with C-terminal His tag (human, UniProt P08637 17-208) in the same assay as above.
T3 construct: extracellular domain; Soluble receptor expressed in FreeStyle293 cells, used as analyte in Biacore; also called FcgRIIIa; 3a; not shown: His tag attached to the C terminus
Procedure: as §1, §2
T3 sequence (P08637 17-208): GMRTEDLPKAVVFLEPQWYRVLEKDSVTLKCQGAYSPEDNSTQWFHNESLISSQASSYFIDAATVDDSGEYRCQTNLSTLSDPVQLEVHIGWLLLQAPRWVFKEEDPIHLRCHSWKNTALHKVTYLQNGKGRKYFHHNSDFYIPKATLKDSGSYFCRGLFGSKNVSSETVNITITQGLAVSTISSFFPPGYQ

With B1 the “He/Con_3a (IIIa binding)” value was 145 relative binding, GpH7-A5/GpH7-B3/GpL16-k0 = 100.

What follows are binders tested against T3, FcγRIIIa extracellular domain with … (assay: SPR (Biacore); ratio of He/Con_3a (FcγRIIIa) to He/Con_2b (FcγRIIb)).
Summary of the method: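 Measurements were made at 25 °C with HBS-EP+ as running buffer. Each antibody sat on a chip bearing its antigen peptide, amine-coupled or streptavidin-bound, while FcγR was passed over; 10 mM glycine-HCl, pH 1.5 removed captured antibody.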

For B1, the “IIIa/IIb (He_3a/2b)” value was 1.31 ratio.

These binders were tested against T4, FcγRIIIa extracellular domain with C-terminal His tag (human, UniProt P08637 17-208) (assay: SPR (Biacore); relative FcγRIIIa binding divided by relative FcγRIIb binding of the same antibody).
T4 construct: extracellular domain; also called FcgRIIIa; 3a; not shown: His tag attached to the C terminus
Procedure: as §2
(§3) The FcγR-binding activity of each antibody was assessed primarily using as an indicator the FcγR-binding activity and dissociation constant for FcγR.
T4 sequence (P08637 17-208): as above

In order of rising “He_3a/2b (IIIa/IIb)” value:
1. B2  0.24 ratio of He/Con_3a to He/Con_2b
2. B3  0.27 ratio of He/Con_3a to He/Con_2b
3. B7  0.3 ratio of He/Con_3a to He/Con_2b
4. B12  0.31 ratio of He/Con_3a to He/Con_2b
5. B6  0.37 ratio of He/Con_3a to He/Con_2b
6. B8  0.44 ratio of He/Con_3a to He/Con_2b
7. B9  0.59 ratio of He/Con_3a to He/Con_2b
8. B5  0.66 ratio of He/Con_3a to He/Con_2b
9. B10  0.67 ratio of He/Con_3a to He/Con_2b
10. B13  0.67 ratio of He/Con_3a to He/Con_2b
11. B14  0.69 ratio of He/Con_3a to He/Con_2b
12. B4  0.73 ratio of He/Con_3a to He/Con_2b
13. B11  0.74 ratio of He/Con_3a to He/Con_2b
14. B15  0.76 ratio of He/Con_3a to He/Con_2b

The binders below were run against T4, FcγRIIIa extracellular domain with … (assay: SPR (Biacore), antibody captured on antigen peptide chip, FcγR as analyte; bound amount against control heterodimerized antibody).
Procedure: as §2, §3

In order of rising “He/Con_3a (IIIa binding)” value:
1. B12  11.8 relative binding activity, GpH7-A5/GpH7-B3/GpL16-k0 = 100
2. B3  17.9 relative binding activity, GpH7-A5/GpH7-B3/GpL16-k0 = 100
3. B6  21.5 relative binding activity, GpH7-A5/GpH7-B3/GpL16-k0 = 100
4. B8  45.6 relative binding activity, GpH7-A5/GpH7-B3/GpL16-k0 = 100
5. B7  65 relative binding activity, GpH7-A5/GpH7-B3/GpL16-k0 = 100
6. B14  71 relative binding activity, GpH7-A5/GpH7-B3/GpL16-k0 = 100
7. B5  76.4 relative binding activity, GpH7-A5/GpH7-B3/GpL16-k0 = 100
8. B11  82.8 relative binding activity, GpH7-A5/GpH7-B3/GpL16-k0 = 100
9. B2  91.9 relative binding activity, GpH7-A5/GpH7-B3/GpL16-k0 = 100
10. B13  96.7 relative binding activity, GpH7-A5/GpH7-B3/GpL16-k0 = 100
11. B10  104 relative binding activity, GpH7-A5/GpH7-B3/GpL16-k0 = 100
12. B9  113 relative binding activity, GpH7-A5/GpH7-B3/GpL16-k0 = 100
13. B4  122 relative binding activity, GpH7-A5/GpH7-B3/GpL16-k0 = 100
14. B15  122 relative binding activity, GpH7-A5/GpH7-B3/GpL16-k0 = 100

Each binder was assayed against T2, FcγRIIb extracellular domain with … in the same assay as above.
Procedure: as §2, §3

In order of falling “He/Con_2b (IIb binding)” value:
1. B2  379 relative binding activity, GpH7-A5/GpH7-B3/GpL16-k0 = 100
2. B7  218 relative binding activity, GpH7-A5/GpH7-B3/GpL16-k0 = 100
3. B9  193 relative binding activity, GpH7-A5/GpH7-B3/GpL16-k0 = 100
4. B4  167 relative binding activity, GpH7-A5/GpH7-B3/GpL16-k0 = 100
5. B15  160 relative binding activity, GpH7-A5/GpH7-B3/GpL16-k0 = 100
6. B10  156 relative binding activity, GpH7-A5/GpH7-B3/GpL16-k0 = 100
7. B13  144 relative binding activity, GpH7-A5/GpH7-B3/GpL16-k0 = 100
8. B5  116 relative binding activity, GpH7-A5/GpH7-B3/GpL16-k0 = 100
9. B11  111 relative binding activity, GpH7-A5/GpH7-B3/GpL16-k0 = 100
10. B8  104 relative binding activity, GpH7-A5/GpH7-B3/GpL16-k0 = 100
11. B14  103 relative binding activity, GpH7-A5/GpH7-B3/GpL16-k0 = 100
12. B3  65.9 relative binding activity, GpH7-A5/GpH7-B3/GpL16-k0 = 100
13. B6  57.2 relative binding activity, GpH7-A5/GpH7-B3/GpL16-k0 = 100
14. B12  37.9 relative binding activity, GpH7-A5/GpH7-B3/GpL16-k0 = 100
